The source of these data is US20030143760A1.

In test [1] the target is PHF-tau (human) (UniProt P10636). In words: competition ELISA on PHF-tau captured by polyclonal anti-tau; biotinylated BT2, unlabeled competitor AT120 at 10 ug/ml.
Test [2] has the same target. In words: competition ELISA on PHF-tau captured by polyclonal anti-tau; biotinylated BT2, unlabeled competitor BT2 at 10 ug/ml. On the technique in general: In an ELISA, binding on a coated surface is turned into a signal by an enzyme label.
The target is the same in test [3]. In words: competition ELISA on PHF-tau captured by polyclonal anti-tau; biotinylated AT8, unlabeled competitor AT120 at 10 ug/ml.
For test [4] the target is unchanged. In words: competition ELISA on PHF-tau captured by polyclonal anti-tau; biotinylated AT8, unlabeled competitor AT8 at 10 ug/ml.
The target of test [5] is affinity-purified human normal tau (human) (UniProt P10636). In words: sandwich ELISA: AT120 coated, tau at 80 pg/ml spiked in tau-negative CSF, detection with biotinylated BT2 + HT7.
The target in test [6] is PHF-tau (human) (UniProt P10636). The description is as above.
Test [7] shares this target. In words: competition ELISA on PHF-tau captured by polyclonal anti-tau; biotinylated AT120, unlabeled competitor AT8 at 10 ug/ml.
The target in test [8] is affinity-purified human normal tau (human) (UniProt P10636). In words: sandwich ELISA: AT120 coated, tau at 40 pg/ml spiked in tau-negative CSF, detection with biotinylated BT2 + HT7.
The target of test [9] is PHF-tau (human) (UniProt P10636). The description is as above.
Test [10] concerns the target affinity-purified human normal tau (human) (UniProt P10636). In words: sandwich ELISA: AT120 coated, tau at 160 pg/ml spiked in tau-negative CSF, detection with biotinylated BT2 + HT7.
In test [11] the target is PHF-tau (human) (UniProt P10636). The test is described as above.
The target in test [12] is affinity-purified human normal tau (human) (UniProt P10636). In words: sandwich ELISA: AT120 coated, tau at 10 pg/ml spiked in tau-negative CSF, detection with biotinylated BT2 + HT7.
Test [13] concerns the target PHF-tau (human) (UniProt P10636). The test is described as above.
Test [14] has as its target affinity-purified human normal tau (human) (UniProt P10636). In words: sandwich ELISA: AT120 coated, tau at 0 pg/ml (blank), detection with biotinylated BT2 + HT7.
The target in test [15] is PHF-tau (human) (UniProt P10636). The description is as above.
Test [16] concerns the target affinity-purified human normal tau (human) (UniProt P10636). In words: sandwich ELISA: AT120 coated, tau at 20 pg/ml spiked in tau-negative CSF, detection with biotinylated BT2 + HT7.
Test [17] concerns the target PHF-tau (human) (UniProt P10636). Described as above.
For test [18] the target is unchanged. In words: competition ELISA on PHF-tau captured by polyclonal anti-tau; biotinylated AT120, unlabeled competitor AT120 at 10 ug/ml.

With monoclonal antibody BT2, the values for the Absorbance in test [1] and in [2] were 0.543 absorbance and 0.054 absorbance, respectively.

Take monoclonal antibody AT8: the Absorbance came out at 0.372 absorbance in [3] and 0.001 absorbance in [4].

Turning to monoclonal antibody AT120, the absorbance (milliabsorbance units) (milliabsorbance units) came to 970 in [5]; 901 in test [6]; 678 in [8]; 566 in test [9]; 1610 in test [10]; 1680 in test [11]. Moreover, the absorbance (milliabsorbance units) (milliabsorbance units) in [12] came to 154; in [13], 143; in test [14] it was 87; in test [15], 92; in test [16], 256; in [17], 257. The values for the Absorbance in test [7] and in test [18] were 0.476 absorbance and 0.001 absorbance, respectively.
